The source of these data is US20240279280A1 (CAMBRIDGE ENTERPRISE, published 2024).

The labels stand for the following.
T1: human apelin receptor (human, UniProt P35414 1-380)
T1 sequence (looked up): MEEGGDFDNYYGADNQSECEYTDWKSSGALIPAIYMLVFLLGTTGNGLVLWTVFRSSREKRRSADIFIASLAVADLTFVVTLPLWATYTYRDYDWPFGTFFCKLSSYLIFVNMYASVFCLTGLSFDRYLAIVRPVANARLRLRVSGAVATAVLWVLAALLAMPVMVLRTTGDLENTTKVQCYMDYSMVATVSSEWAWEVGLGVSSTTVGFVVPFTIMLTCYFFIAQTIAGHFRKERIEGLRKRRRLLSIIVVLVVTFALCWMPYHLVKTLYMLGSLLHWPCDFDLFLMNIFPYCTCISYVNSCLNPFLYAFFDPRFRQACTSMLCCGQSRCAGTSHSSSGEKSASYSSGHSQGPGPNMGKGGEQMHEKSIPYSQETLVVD

B1: MM193 (peptide)
peptide: CRPR[Nle]CKHCR[Aib]R[Nle][Phe(3,4,5-F3)]
modifications: cysteine pairing not given here
notes: also called CRPR-Nle-CKHCR-Aib-R-Nle-(3,4,5-trifluoro-)F
B2: MM262 (peptide)
peptide: QRPR[Nle]CKHCR[Aib]R[Nle][Phe(3,4,5-F3)]
modifications: cysteine pairing not given here
notes: also called QRPR-Nle-CKHCR-Aib-R-Nle-(3,4,5-trifluoro-)F
B3: MM300 (peptide)
peptide: Myristoyl-CRPR[Nle]CKHCR[Aib]R[Nle][Phe(3,4,5-F3)]
modifications: cysteine pairing not given here
notes: also called Myristoyl-CRPR-Nle-CKHCR-Aib-R-Nle-(3,4,5-trifluoro-)F
B4: MM54 (peptide)
peptide: CRPRLCKHCRPRLC
modifications: disulfide 1-6, 9-14
notes: Previously published macrocyclic comparator; also called cyclo(1-6)CRPRLC-KH-cyclo(9-14)CRPRLC
B5: MM302 (peptide)
peptide: CRPR[Nle]CHKCR[Aib]R[Nle][Phe(3,4,5-F3)]
modifications: cysteine pairing not given here
notes: also called CRPR-Nle-CHKCR-Aib-R-Nle-(3,4,5-trifluoro-)F

Values joined by “and” are separate entries in the source; they are usually repeats but may differ in a detail not shown here. Equal entries are not always repeated. Positions of bridges follow the written chain, without caps; N, C: chain ends. Non-standard residues stand in square brackets, D forms with d. No end group written: not given here. *: point of attachment. Phe(3,4,5-F3) = N[C@@H](Cc1cc(F)c(F)c(F)c1)C(=O)O; Myristoyl = CCCCCCCCCCCCCC(=O)*; pGlu = O=C1CC[C@@H](C(=O)O)N1; Nle = CCCC[C@H](N)C(=O)O; Abu = CC[C@H](N)C(=O)O; Aib = CC(C)(N)C(=O)O

The first experiment deals with T1, human apelin receptor. Kind of experiment: radioligand competition vs [Glp65,Nle75,Tyr77][125I]apelin-13 on CHO-K1 cells expressing human apelin receptor (Cerep); Cheng-Prusoff. How it is done:
Binding assays were performed by Cerep (Celle L'Evescault, France) on Chinese Hamster Ovary (CHO-K1) cells expressing the human apelin receptor. […] The results were expressed as a percent of control specific binding ((measured specific binding/control specific binding)×100) and as a percent inhibition of control specific binding (100−((measured specific binding/control specific binding)×100)) obtained in the presence of the test compounds. […] Results showing an inhibition between 20% and 50% were indicative of weak to moderate effects.
Regarding Myristoyl-ARPR[Nle][Abu]HK[Abu]R[Aib]R[Nle][Phe(3,4,5-F3)] [MM316], the Ki is 3 nM and 2.8 nM.

In the case of Myristoyl-ARPR[Nle][Abu]KH[Abu]R[Aib]R[Nle][Phe(3,4,5-F3)] [MM315], the Ki was 3 nM and 2.7 nM.

For Ac-ARPR[Nle]CKH[Abu]R[Aib]R[Nle][Phe(3,4,5-F3)] [MM313], the Ki was 53 nM and 47 nM.

The molecule CRPRLCHKCRPRLC [MM107] came in with an inhibition constant (Ki) of 180 nM.

The molecule CRPRLCKHCRPRLC (Linear peptide) [MM108] had a Ki of 140 nM.

Consider ARPR[Nle][Abu]KH[Abu]R[Aib]R[Nle][Phe(3,4,5-F3)] [MM314], for which the inhibitory constant (Ki) is 10 nM and 8.9 nM.

In the case of CRPR[Nle][Abu]KHCR[Aib]R[Nle][Phe(3,4,5-F3)] (cysteine pairing not given here) [MM298], the Ki came out at 16 nM.

In turn, [pGlu]RPR[Nle]CKHCR[Aib]R[Nle][Phe(3,4,5-F3)] (cysteine pairing not given here) [MM297] gave a Ki of 55 nM.

Regarding B1, the Ki was 19 nM.

As to B2, affinity was put at a Ki of 34 nM.

For CRPR[Nle]CKH[Abu]R[Aib]R[Nle][Phe(3,4,5-F3)] (cysteine pairing not given here) [MM299], the Ki came out at 6.1 nM.

Turning to B3, the affinity corresponds to a Ki of 13 nM.

Molecule B4 displayed an inhibitory constant (Ki) of 82 nM.

The molecule B5 showed a Ki of 17 nM.

As to ARPR[Nle]CKH[Abu]R[Aib]R[Nle][Phe(3,4,5-F3)] [MM312], the inhibition constant (Ki) was 190 nM and 160 nM.

Another experiment has as its target T1, human apelin receptor. Kind of experiment: cell-based or functional assay.
With B4, the “DRx cAMP assay EC50 (weak agonist activity)” value was 1400 nM.

A further experiment deals with T1, human apelin receptor. Kind of experiment: cell-based or functional assay. This is another data set of the same source.
Take Myristoyl-ARPR[Nle][Abu]HK[Abu]R[Aib]R[Nle][Phe(3,4,5-F3)] [MM316]: the DRx cAMP pA2 was 7.41 and 7.88.

As to Myristoyl-ARPR[Nle][Abu]KH[Abu]R[Aib]R[Nle][Phe(3,4,5-F3)] [MM315], the DRx cAMP pA2 is 8.52 and 8.11.

With Ac-ARPR[Nle]CKH[Abu]R[Aib]R[Nle][Phe(3,4,5-F3)] [MM313], the DRx cAMP pA2 was 6.66 and 6.92.

On to ARPR[Nle][Abu]KH[Abu]R[Aib]R[Nle][Phe(3,4,5-F3)] [MM314], for which the DRx cAMP pA2 is 6.43 and 6.71.

Consider CRPR[Nle][Abu]KHCR[Aib]R[Nle][Phe(3,4,5-F3)] (cysteine pairing not given here) [MM298], for which the DRx cAMP pA2 was 7.59 and 7.12; the DRx β-Arrestin pA2 was 7.76.

With [pGlu]RPR[Nle]CKHCR[Aib]R[Nle][Phe(3,4,5-F3)] (cysteine pairing not given here) [MM297], the DRx cAMP pA2 was 6.08 and 6.14; the DRx β-Arrestin pA2 was determined as 7.38.

CRPR[Nle]CKH[Abu]R[Aib]R[Nle][Phe(3,4,5-F3)] (cysteine pairing not given here) [MM299]: the DRx cAMP pA2 was 7.32 and 6.95; the DRx β-Arrestin pA2 was 8.1 and 8.53.

As for ARPR[Nle]CKH[Abu]R[Aib]R[Nle][Phe(3,4,5-F3)] [MM312], the DRx cAMP pA2 was 6.6 and 6.84.

A further experiment addresses T1, human apelin receptor. Put plainly: cell-based or functional assay. This is another data set of the same source.
Regarding CRPRLCHKCRPRLC [MM107], the “DRx β-Arrestin pA2” value turned out to be 7.24.

With CRPRLCKHCRPRLC (Linear peptide) [MM108], the “DRx β-Arrestin pA2” value was found to be 7.41.

In the case of B1, the “DRx β-Arrestin pA2” value was found to be 7.68.

B2: the “DRx β-Arrestin pA2” value was 7.53.

As to B4, the “DRx cAMP pD2” value was found to be 5.86.

A further experiment has as its target T1, human apelin receptor. Kind of experiment: binding to human left ventricle.
B4: the dissociation constant (Kd) came to 358 nM.

The target of another experiment is T1, human apelin receptor. Put plainly: radioligand competition vs [Glp65,Nle75,Tyr77][125I]apelin-13 on human left ventricle homogenate. As for the experimental part:
Equilibrium was broken by centrifugation (20,000 g for 10 min, 4° C.). Pellets were washed with Tris-HCl buffer (50 mmol/L, pH 7.4, 4° C.), re-centrifuged and bound radioactivity in the final pellets counted. Data from triplicate experiments were analysed using the iterative non-linear curve fitting programs EBDA and LIGAND (KELL package, Biosoft, UK) or GraphPad Prism 6 to derive values of affinity (expressed as either the equilibrium dissociation constant KD or the negative log₁₀ of the dissociation constant, pKᵢ±sem) and receptor density (BMAX±sem in fmoles bound per mg protein).
Turning to B1, the “HLV pKi” value amounted to 6.12.
